# In publication PMC11741006 (RSC Chemical Biology, 2025):
# Starred links: 1 amine or outer side, 2 acyl side, 3 side chain; linkers in the order of their positions; H or OH if unused. Positions of bridges follow the written chain, without caps; N, C: chain ends. Non-standard residues stand in square brackets, D forms with d. *: point of attachment. FITC = O=C1OC2(c3ccc(O)cc3Oc3cc(O)ccc32)c2ccc(NC(=S)*)cc21; S7 = C[C@@](CCCCCC=[*:3])(N[*:1])C(=O)[*:2]; R8 = C=CCCCCCC[C@@](C)(N)C(=O)O; Cba = N[C@@H](CC1CCC1)C(=O)O; S5 = C=CCCC[C@](C)(N)C(=O)O; Ahx = NCCCCCC(=O)O
# T1: MDMX (1–134) (UniProt O15151 1-134)
# T1 construct: MDMX, residues 1-134; the methods may stand in the ESI; also called Mouse double minute X homolog
# T1 sequence (looked up): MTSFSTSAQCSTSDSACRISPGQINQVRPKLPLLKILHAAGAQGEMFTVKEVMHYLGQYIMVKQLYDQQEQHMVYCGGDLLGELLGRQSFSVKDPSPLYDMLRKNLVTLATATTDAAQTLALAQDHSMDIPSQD
# Target: T1, MDMX (1–134)
# Test: fluorescence polarisation; direct binding; 10 nM FITC-labelled peptide incubated with varying concentrations of protein (10 μM to 9 pM), FP read after 3 h; n = 3
# Details: both partners purified
row,Binder,Kd
1,{FITC-Ahx}-LTA[S7]EYWAQ[Cba][S7]SAA-NH2 (staple 4-11) [5FITC],1120 ± 252 nM
2,{FITC-Ahx}-LTF[S7]EYWAQ[Cba][S7]SAA-NH2 (bridge 4-11; not fully specified (bridges)) [4FITC],203 ± 54 nM

# Stronger by Kd, values ahead:
row,Kd,Binder
1,7.86 ± 0.15 nM,{FITC-Ahx}-LTF[R8]EYWAQ[Cba][S5]SAA-NH2 (staple 4-11; also: trans alkene isomer) [trans-3FITC (ATSP-7041)]
2,8.42 ± 0.09 nM,{FITC-Ahx}-LTF[R8]EYWAQ[Cba][S5]SAA-NH2 (staple 4-11; also: cis alkene isomer) [cis-2FITC (ATSP-7041)]

# Target: T2, MDM2 (1–138) (UniProt Q00987 1-138)
# T2 construct: MDM2, residues 1-138; the methods may stand in the ESI; also called Mouse double minute 2 homolog
# Test: as above
# Details: both partners purified
# T2 sequence (Q00987 1-138): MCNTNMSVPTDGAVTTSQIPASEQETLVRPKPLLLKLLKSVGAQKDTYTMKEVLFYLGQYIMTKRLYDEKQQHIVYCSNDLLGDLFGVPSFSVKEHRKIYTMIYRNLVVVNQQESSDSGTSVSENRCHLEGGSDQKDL
row,Kd,Binder
1,3680 ± 151 nM,{FITC-Ahx}-LTA[S7]EYWAQ[Cba][S7]SAA-NH2 (staple 4-11) [5FITC]
2,1.39 ± 0.08 nM,{FITC-Ahx}-LTF[S7]EYWAQ[Cba][S7]SAA-NH2 (bridge 4-11; not fully specified (bridges)) [4FITC]
